What was measured:
[1] = biological target: T1, Activin B (Homo sapiens, UniProt P09529); assay: Biacore-based binding assay (surface plasmon resonance), activin B; details: SPR 37° C.; compared to ActRIIB-G1Fc / ActRIIB-Fc homodimer
T1 sequence (P09529 293-407): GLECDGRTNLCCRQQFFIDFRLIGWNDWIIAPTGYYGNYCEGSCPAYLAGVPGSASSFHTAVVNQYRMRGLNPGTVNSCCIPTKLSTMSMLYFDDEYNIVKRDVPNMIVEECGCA
Experimental: (§1) To determine ligand binding profiles of variant ActRIIB-Fc homodimers, a Biacore™-based binding assay was used to compare ligand binding kinetics of certain variant ActRIIB-Fc polypeptides. ActRIIB-Fc polypeptides to be tested were independently captured onto the system using an anti-Fc antibody. Ligands were then injected and allowed to flow over the captured receptor protein. ActRIIB-G1Fc was used as the control polypeptide.
(§2) A Biacore™-based binding assay was used to compare the ligand binding kinetics of an ActRIIB-Fc:ActRIIB(L79E)-Fc heterodimer with those of unmodified ActRIIB-Fc homodimer. Fusion proteins were captured onto the system using an anti-Fc antibody. Ligands were then injected and allowed to flow over the captured receptor protein at 37° C. Results are summarized in the table below, in which ligand off-rates (kd) most indicative of effective ligand traps are denoted in bold.

[2] = biological target: T2, GDF8 (Homo sapiens, UniProt O14793); assay: Biacore-based binding assay (surface plasmon resonance), GDF8; details: SPR 37° C.; compared to ActRIIB-G1Fc / ActRIIB-Fc homodimer
T2 sequence (O14793 267-375): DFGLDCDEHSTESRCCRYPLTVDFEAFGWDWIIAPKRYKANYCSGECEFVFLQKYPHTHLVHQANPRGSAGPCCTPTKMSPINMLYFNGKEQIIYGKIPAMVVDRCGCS
Experimental: as §1, §2

[3] = biological target: T3, GDF11 (Homo sapiens, UniProt O95390); assay: Biacore-based binding assay (surface plasmon resonance), GDF11; details: SPR 37° C.; compared to ActRIIB-G1Fc / ActRIIB-Fc homodimer
T3 sequence (O95390 299-407): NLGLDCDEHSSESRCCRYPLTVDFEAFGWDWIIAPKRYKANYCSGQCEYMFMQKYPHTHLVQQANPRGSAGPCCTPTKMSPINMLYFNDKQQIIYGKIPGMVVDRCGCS
Experimental: as §1
as §1, with “protein.” for “protein. ActRIIB-G1Fc was used as the control polypeptide.”
as §2

[4] = biological target: T4, BMP9 (Homo sapiens, UniProt Q9UK05); assay: Biacore-based binding assay (surface plasmon resonance), BMP9; details: SPR 37° C.; for binding to BMP9 compared to unmodified ActRIIB-Fc (in words): compared to ActRIIB-G1Fc / ActRIIB-Fc homodimer; for reduction in affinity for BMP9 compared with reduction in affinity for GDF11 or activin A: FIG. 9, compared to Fc fusion with unmodified ActRIIB extracellular domain
T4 sequence (Q9UK05 320-429): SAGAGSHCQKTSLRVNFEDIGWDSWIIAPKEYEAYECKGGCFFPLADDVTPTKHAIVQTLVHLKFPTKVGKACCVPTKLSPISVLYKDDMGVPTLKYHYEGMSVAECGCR
Experimental: as §1
as §1, with “protein.” for “protein. ActRIIB-G1Fc was used as the control polypeptide.”
as §2

[5] = biological target: T3, GDF11; assay: A204 cell-based pGL3(CAGA)12 reporter gene assay, signaling by GDF11; details: A204 reporter gene assay
From the text: (§3) To determine activity of variant ActRIIB-Fc polypeptides, an A204 cell-based assay was used to compare effects among variant ActRIIB-Fc polypeptides on signaling by activin A, activin B, GDF8, GDF11, BMP9, and BMP10, in comparison to ActRIIB-G1Fc. In brief, this assay uses a human A204 rhabdomyosarcoma cell line (ATCC®: HTB-82™) derived from muscle and the reporter vector pGL3(CAGA)12 (Dennler et al., 1998, EMBO 17: 3091-3100) as well as a Renilla reporter plasmid (pRLCMV) to control for transfection efficiency. The CAGA12 motif is present in TGF-β responsive genes (e.g., PAI-1 gene), so this vector is of general use for ligands that can signal through Smad2/3, including activin A. GDF11, and BMP9.
(§4) On day 1. A204 cells were transferred into one or more 48-well plates. On day 2, these cells were transfected with 10 μg pGL3(CAGA)12 or pGL3(CAGA)12(10 μg)+pRLCMV (1 pg) and Fugene. On day 3, ligands diluted in medium containing 0.1% BSA were preincubated with ActRIIB-Fc polypeptides for 1 hr before addition to cells. Approximately six hour later, the cells were rinsed with PBS and lysed. Cell lysates were analyzed in a luciferase assay to determine the extent of Smad activation.
(§5) This assay was used to screen variant ActRIIB-Fc polypeptides for inhibitory effects on cell signaling by activin A, activin B. GDF8, GDF11. BMP9, and BMP10. Potencies of homodimeric Fc fusion polypeptides incorporating amino acid substitutions in the human ActRIIB extracellular domain were compared with that of an Fc fusion polypeptide comprising unmodified human ActRIIB extracellular domain, ActRIIB-G1Fc. For some variants tested, it was not possible to calculate an accurate IC50, but signs of inhibition in the slope of the curves were detectable. For these variants, an estimate was included of the order of magnitude of the relative IC50, i.e. >10 nM or >100 nM instead of a definite number. Such data points are indicated by a (*) in Table 3 below. For some variants tested, there was no detectable inhibition in the slope of the curves over the concentration range tested, which is indicated by “ND” in Table 4.
as §3, with “A,” for “A, activin B, GDF8,”, “GDF11,” for “GDF11, BMP9,”, “and BMP9.” for “and BMP10, in comparison to ActRIIB-G1Fc.”, “(Dennler el” for “(Dennler et”, “activin A,” for “activin A.”
as §4, with “1, A-204” for “1. A204”, “μg)” for “pg)”
(§6) This assay was used to screen variant ActRIIB-Fc polypeptides for inhibitory effects on cell signaling by activin A, GDF11, and BMP9. Potencies of homodimeric Fc fusion polypeptides incorporating amino acid substitutions in the human ActRIIB extracellular domain were compared with that of an Fc fusion polypeptide comprising unmodified human ActRIIB extracellular domain.

[6] = biological target: T5, Activin A (Homo sapiens, UniProt P08476); assay: A204 cell-based pGL3(CAGA)12 reporter gene assay, signaling by activin A; details: A204 reporter gene assay
T5 sequence (P08476 311-426): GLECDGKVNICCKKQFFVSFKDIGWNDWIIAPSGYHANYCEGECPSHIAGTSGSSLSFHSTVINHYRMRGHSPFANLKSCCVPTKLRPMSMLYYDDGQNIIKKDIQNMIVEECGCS
From the text: as §3, §4, §5
as §3, with “A,” for “A, activin B, GDF8,”, “GDF11,” for “GDF11, BMP9,”, “and BMP9.” for “and BMP10, in comparison to ActRIIB-G1Fc.”, “(Dennler el” for “(Dennler et”, “activin A,” for “activin A.”
as §4, with “1, A-204” for “1. A204”, “μg)” for “pg)”
as §6

[7] = biological target: T4, BMP9; assay: A204 cell-based pGL3(CAGA)12 reporter gene assay, signaling by BMP9; details: A204 reporter gene assay
From the text: as §3, §4, §5
as §3, with “A,” for “A, activin B, GDF8,”, “GDF11,” for “GDF11, BMP9,”, “and BMP9.” for “and BMP10, in comparison to ActRIIB-G1Fc.”, “(Dennler el” for “(Dennler et”, “activin A,” for “activin A.”
as §4, with “1, A-204” for “1. A204”, “μg)” for “pg)”
as §6

[8] = biological target: T6, GDF11 (UniProt O95390 299-407); assay: cell-based or functional assay
T6 construct: also called Growth and differentiation factor-11; BMP11
T6 sequence (looked up): T3 sequence (O95390 299-407)

[9] = biological target: T7, BMP9 (UniProt Q9UK05 320-429); assay: cell-based or functional assay
T7 sequence (looked up): T4 sequence (Q9UK05 320-429)

affinity for activin B compared to unmodified ActRIIB-Fc (in words) [1]	binding to BMP9 compared to unmodified ActRIIB-Fc (in words) [4]	inhibition of BMP9 compared to fusion polypeptide with unmodified ActRIIB extracellular domain (in words) [7]	IC50 (ng/ml), A204 CAGA12 luciferase reporter assay [8] [ng/mL]	IC50 (ng/ml), A204 CAGA12 luciferase reporter assay [9] [ng/mL]	Substance	GDF8 binding compared to unmodified ActRIIB-Fc (in words) [2]	GDF11 binding compared to unmodified ActRIIB-Fc (in words) [3]	inhibition of GDF11 compared to fusion polypeptide with unmodified ActRIIB extracellular domain (in words) [5]	inhibition of activin A compared to fusion polypeptide with unmodified ActRIIB extracellular domain (in words) [6]	selectivity of antagonism (activin A and GDF11 over BMP9) compared to unmodified ActRIIB-Fc [7]	reduction in affinity for BMP9 compared with reduction in affinity for GDF11 or activin A [4]	also measured
relatively high affinity for activin B	decrease in binding to BMP9				F82I-N83R: homodimeric ActRIIB-G1Fc fusion with F82I and N83R substitutions; mature SEQ ID NO: 278	significant decrease in GDF8 and GDF11 binding	significant decrease in GDF8 and GDF11 binding					
relatively high affinity for activin B	decrease in binding to BMP9				F82K-N83R: homodimeric ActRIIB-G1Fc fusion with F82K and N83R substitutions; mature SEQ ID NO: 332	significant decrease in GDF8 and GDF11 binding	significant decrease in GDF8 and GDF11 binding					
		less potent inhibition of BMP9			F82K: homodimeric ActRIIB-G1Fc fusion with F82K substitution; mature SEQ ID NO: 42			essentially undiminished inhibition of activin A and GDF11	essentially undiminished inhibition of activin A and GDF11	more selective antagonists of activin A and GDF11	reduce ActRIIB binding affinity for BMP9 more than they reduce ActRIIB affinity for activin A or GDF11	reduction in affinity for BMP9 compared with reduction in affinity for GDF11 or activin A ([4]; listed as ActRIIB(F82K)-Fc): greater reduction in their affinity for BMP9 than for GDF11
relatively high affinity for activin B	decrease in binding to BMP9				F82T-N83R: homodimeric ActRIIB-G1Fc fusion with F82T and N83R substitutions; mature SEQ ID NO: 335	significant decrease in GDF8 and GDF11 binding	significant decrease in GDF8 and GDF11 binding					
			389	40000	F82W/N83A (homodimeric ActRIIB-Fc construct) (Fc fusion)							
		less potent inhibition of BMP9			K55A: homodimeric ActRIIB-G1Fc fusion with K55A substitution; mature SEQ ID NO: 33			essentially undiminished inhibition of activin A and GDF11	essentially undiminished inhibition of activin A and GDF11	more selective antagonists of activin A and GDF11	reduce ActRIIB binding affinity for BMP9 more than they reduce ActRIIB affinity for activin A or GDF11	reduction in affinity for BMP9 compared with reduction in affinity for GDF11 or activin A ([4]; listed as ActRIIB(K55A)-Fc): greater reduction in their affinity for BMP9 than for GDF11
		less potent inhibition of BMP9			K55E: homodimeric ActRIIB-G1Fc fusion with K55E substitution; mature SEQ ID NO: 36			essentially undiminished inhibition of activin A and GDF11	essentially undiminished inhibition of activin A and GDF11	more selective antagonists of activin A and GDF11	reduce ActRIIB binding affinity for BMP9 more than they reduce ActRIIB affinity for activin A or GDF11	reduction in affinity for BMP9 compared with reduction in affinity for GDF11 or activin A ([4]; listed as ActRIIB(K55E)-Fc): greater reduction in their affinity for BMP9 than for GDF11
			45	165	K74R (homodimeric ActRIIB-Fc construct) (Fc fusion)							
			591	1210	R40A (homodimeric ActRIIB-Fc construct) (Fc fusion)							

Reference: patent publication US20240181007A1, “COMPOSITIONS AND METHODS FOR TREATING PULMONARY HYPERTENSION” (Acceleron Pharma Inc., priority 2021, published 2024)
